According to the DeepSol protein solubility set:

test: soluble on expression in E. coli; label from the status in PepcDB or PDB records

Row | Sequence | soluble on expression in E. coli
1 | MGSDKIHHHHHHMHFDIKDLKLFLAISEEGSITRGAEKTYMSAASGSVRIRNLEQSINLRLLYRSSKGITLSSAGETFKHHASLIVNQMEMLRSDMQEHVKGIKGHVRIFSSITAIAEYLPPLLSHFLTLYNDVNIDLREYPSPEIVRSVIEGKTDLGIVAGNITTDNLEILPFRTDRLVLITATDHPFADRKSVTFHELIQYEQISLPEGTGMFEFIRKKAELVPSKLKIRIQVGNFETFCRMVEAKVGIGIMPHSAASRLRQLHEFSIIDLDEFWSLRKLQICARSFDKLPGFTQKLVTMLTAQTE | not soluble
2 | MGKGLLGKRVAIGGSRKTEEISTIIEKQGGIPVIRPLQGTVYLAEKQVEPDLRTFAEEKADWVIFTTGIGLETLVDMAEKIGLKDEFLQAIRQAKAACRGYKTLSALKKLGITPEASDEDGTTRGLIRSLEPHDFSGKTVMVQLHGEKAPALMAFLEEKGASVLPILPYQHIPPEEETVERLCRELMNDEVDAVCFTTAIQVRSLFDFAKGRGYINEVKKVFEERAIAAAVGKVTAEALREEGITRLLAPEIERMGAMIVELAKYYEEKE | not soluble
3 | MMNYDRILIRYGEMTTKGKNRNIFVRRLKNNIARKLQAFERIQIEYMRDRMYILLNGEPHEPIIEKLKTVFGIHSFSLAMKCENDLDAIKETALAAVRQLPYKGKTFKVSARRVDKQFPDRSDELNYEVGAHILRHTDGLTVNVREPDIDVRIEVRQDGTYVTCRDIFGAGGLPVGTSGKAMLMLSGGIDSPVAGYLSMKRGLEIEAVHFFSPPFTSERAKQKVIDLVRKLTTYGGRIKLHIVPFTEVQQAIYQGVPNEYSLISTRRAMLRITDALRRRQRALAIVTGESLGQVASQTLESMYVINEVTNTPILRPLVSMDKLEIIELAKQIGTHDISILPYEDCCTIFTPRAPKTKPKKEKVFHYESQLDLAPLLEKAVNDTETLVIDEETGQGDEFAELF | not soluble
4 | MLKKLSPIFSNITGVVRYQDLAYVASVSDEIQEQNIAHSYVTEWDCGTWCVAGEDDDMLPWEIVSATVVHEPVEQALFLGARGQVFCMGSGDIHEEQLPDGDDAIGGRGNMRGVACIDGVAYACGMDRQVYRRFDENDWRAIDTGARPPAGSEAVVGFEAIGGFGAREIYAVGWDGEIWQYDGKRWQPRESPTNLILTAICCAEDGSVYACGQAGTLLRGRNDHWEIIAQDDVDEDLWSLAWFDGALYVSSATAVYTLVGGHLKEVDFGDEQPQRCFHLSAADGVLWSIAAKDIFSFDGQQWTRID | not soluble
5 | MIKVAIIGAENVGKSTLMNALLGGKFSEVSETPGTTKGIIKRAFGKIKLPKTMKNPFGGADELVLIDTAGLFDPEKEIRGKVLSEEKFKELIKEIVNADVIIHMIDATKGLHRGMEKLHYMLKFRYEKPIIVVINKIDLVSREELERLRELVKKRLEQEPILLSLVTYEGFNELLKALTYYAQYVE | soluble
6 | MGSDKIHHHHHHMKIVFLAPFGIRPKGTVVARMVPLAAELQALGHRVTIVAPPYTNPEDSGHTEEIRGVRLRNIRLAPGGAALSAPVMAWRMYRAAREEEPDLIHLFKPKGYGGLAAMLHLLTASRSSPLFLDTDDWEGRGGMNALHDYSPAQRLLFAFQEEWLPPRVRGVTVASRELEARIAAMGVAPERLLYLPNCVDDQPLGNGARVRARLGIDGNAPVVLLYTRFFEFSQEDLHRVFAGLSRKVPGIRFLVVGTGRNREEELLAAAARAEGFADSLHIAGWVEPDELPHWLAAGDVALYPFADTLVNRAKCPAKLTELMRAGVPVVADRVGQIAEYVEDGISGILCRPSAPDEMIARIAELLADPVRRRAVGTAGRERILSRFNWRDAAARLDAFYDNLTRRRNLA | not soluble
7 | MSLKNNSEVFNVLHFSDIHIQLRYNVGAEANCTNLPCGAPDSYNKQLLPSSYNFSSYYQHFSPNVAKMEFSFYPDAHYDENSQYIKGDYYDFPLYRGWNFKNAPATSFGGYLTDSPAVLMNSSLISMAKMHKEKNFEFAIFTGDVVDHLLLSCTPEYTKEEEVKSFKAMKFFFNNLTVLPALGNHETGEYGQLSPIAYDFNGSYSWNQDEMVDLWINNEWFPAKDRYDLKSHYAGFSYVTNRGLKVIGLNSNAYYQKNLWSYIDLSTNPDLFGQWEFLVNELIESEEKGQRVWIMAHIPTTDYDTLPLQSRIFGKIVERFSPYTIANIFFAHTHMDQTHILYSTNSSKEAEDIINMSWVMQSVTPLANYNPSWRYYEVENESFNIINSFNYMTKLNDTFVNGGEEPVWEFEYSARELYDPKKTWPERAPLNATFWHKYVFERLRNESDIEFNQQYSNIRYREGHHHHHH | not soluble
8 | MLKIDAIAFFGSKTKLANVAGVRLASVAAWGELVPEGRAMRLQEASGGELQYDPKVYDEYRKAKRAGRLNNENHH | not soluble
9 | SLVVAIDPGHGGQDSGAVGPTGKLEKNVTLAIGRELARQINATPGMKAYMTRDSDVFIPLPMRAQRARAAKADIFISIHADAADNRAATGSSVYVLSTRGASSQRARWLADKENAADLVGGVRLQKAEPTLANVLLDLAQSGYMKASEDAADHVLGSLKRVANNHKSEVEHANFAVLRTSDMPAMLVETAFISNAYEERRLVDPAFQRQLAAAVLEGVITFFTNQPPPGTLFALRAQAEPATTGGSVITSTH | not soluble
10 | GMSSSGTSITCEVGLQLIVPDRAPVPLVARLDYSVDDPYAIRAAFHVGDDEPVEWIFARELLTVGIIRETGEGDVRIWPSQDGKERMVNIALSSPFGQARFHAQVAPLSEFLHRTYELVPAGQESDYIDIDAEIAEHLS | soluble
11 | MGNGMTKVLPGLYLGNFIDAKDLDQLGRNKITHIISIHESPQPLLQDITYLRIPVADTPEVPIKKHFKECINFIHCCRLNGGNCLVHCFAGISRSTTIVTAYVMTVTGLGWRDVLEAIKATRPIANPNPGFRQQLEEFGWASSQKLRRQLEERFGESPFRDEEELRALLPLCKRCRQGSATSASSAGPHSAASEGTVQRLVPRTPREAHRPLPLLARVKQTFSCLPRCLSRKGGK | soluble
12 | MNDFTTEIVQTLVTKGDLNELFRSHLEKAINTLLRTELTAFLDYEKYDRTGFNSGNSRNGSYFRSIKTEYGELTLEIPRDRNGEFKQQTLPAYKRTNDTLETTIIHLFEKGVTMSEIADLIEKMYGHHYTPQTMSNMTKVLTEEVNAFKSRALNDKYVAIFMDATYIPLKRQTVSKEAIYIAIGIREDGTKEVLSYAIAPTESTYVWNELLQDINSRGVQEVLLFITDGLKGMKDTIHQIYPKAKYQHCCIHVSRNIAHKVRVKDRKEICDDFKAVYQANSKEEANTFLSGMIEKWKKNYPKVTQSLIENQDLLTFYDFPPSIRRTIYSTNLIESFNKQIKRYSRRKEQFQNEESLERFLVSIFDTYNQKFLNRSHKGFQQVTDTLVSMFTE | not soluble
13 | MGSDKIHHHHHHSDKKNTADESEKGVSTVLPDTKNEVAVQILKKRDFHHELVSNGKISARGKADLRFETGEVIAHIYVKNGDRVQKGQKLADLDKFRLEQKLSQSEDALLKAELELKDVLIGQGYSPDDFSKVPAETMKIAKVKSGYEQSKSQYELAKREMEHATLIAPFDGVVANLFSKPYNPANTSEAFCTIIDSKGMEADFTVLENELAFIRMGDKVVITPYAGGDAFEGSVSEINPLVDANGMVKVKALVNAGGKLFSGMNVRVSVRRSLGERLVIPKSAVVLRSGKQVVFTLKDGKAMWNYVNTGLENAIECVVSDKSQKGIEDGLLEGDTVIVTGNLNLAHEAEVYVK | not soluble
14 | MSVSHAQLKAFHAVAVYGSFTRAAERLFLTQPAVSDQVRKLEERYGVLLFHRNKRSVRLSELGERLLAVTQRLFAIEAEAEELLSASSALQTGTLTLAVDAPVHVLPQIARFCERYPGIAVRVETGNTDESLQRLFSYQADLALLGRDVSDERLLSLTLRNDPIVAFVSLSHPWAGRESIRLADLDDMPLVLREQGSVTRQTLEEEMSRAGLRICPAIQVEGREASREAVVAGIGVGVVSAAEFGADTRVHALPIVDCQRRLTETLVCLREQRSRRIVETFLDLVGEDLPAPS | not soluble
15 | MGHHHHHHSHDVPEMPSIPNPFPELCCSPFTSVLSADLFPKANSRKKQVIKVYSEDETSRALDVPSDITARDVCQLLILKNHYIDDHSWTLFEHLPHIGVERTIEDHELVIEVLSNWGIEEENKLYFRKNYAKYEFFKNP | not soluble
16 | MMMSSEMIHVEVVYALPHEQRVLKLVVEQSATVEEIIRTSGILQMYPEIDLTVNKVGIFSRNVKLDARVRDKDRIEIYRPLLADPKEIRRKRAEQAKAAANQS | not soluble
17 | MGSDKIHHHHHHMVPMTRFDSATEVVRVGENRYAVELDPGYLIGTAMNGGYLMTVLQRSALAESDHLHAVSSSYHFHRPASSGPAEIETRVLKRGRTVTTVQTTLFQEGRTILTGTLATATLDPHAEPRYAAPQPAIPPQHQCRRVDPRQSHLPDDGFLARVDVDFSPDSYAALARERTVTTPELCGYVDLSARDGGSAKDPLAFLPLAVDALPPIVSLLVDWSWAPTVELTWHLRAIPEPGPLAFRSTCALVSDGWFDENVDLWDARGRLVAQSRQLARVGR | not soluble
18 | MGSDKIHHHHHHMKSIPSLDDLDLFARIAQAGGLAVVARQSGVSVPTLSRRMRALELQIGVHLFERGSHGYRVTALGRAFLSETRAFQAEAQRLRRMVATPLMAEVRITAGSWTSAFLAQQLPRFWQEDAQWRPAFLEADTRLDIARRGADIGIRNQRPEQAWLAGRYTGLITYAVYAISDQVRGYVVLPENQAKTPSARWVWSHHGGEVAATARSPRMVADLACAGVGQVVLPRFAAAMFPALQQVGPEIAELSHEEWLVCHHDGRHDPPVRAALEGIAAVLTDTTLRPIGA | not soluble
19 | MGSDKIHHHHHHLVNFIRKNVLPQFGFSREHSTLYPLGNGHINQTFLVSDKSKSLVLQRINTQIFTDPKVVIQNAANISQHLLIKRQQLHYPLQVVSPIATVAGALYLDLGEQGFWRAIDYLPHSTTIEVVDTLNQAKLAAEAFGHFAEALSDLNPSCIADVIPNFLNLPQRIAQLREAKAGDTHNRFSHCIDWVGLCLSQTDLLATLVQYEAELPIRICHNDTKINNMLFDNRDMSSMAIIDLDTCMKGYLMYDFGDMVRAFCSPETEDSTNLTNVYARPEIVIAAATSYMESLGGIITPLEKRSLWLGTKVMSLMLGVRFLTDYLNGDTYFGVKYQTHNLDRAINQLTIYQSLLQQEAQLMPLFNS | not soluble
20 | MSLEALFNPKSIAVIGASSKPGKIGYAIMKNLIEYGYEGKIYPVNIKGGEMEISGRKFKVYKSILEVPDEVDMAVIVVPAKSVPEVVEECGKKGVKVAPIISSGFGELGEEGKKVEQQLVETARKYGMRILGPNIFGVVYTPAKLNATFGPTDVLPGPLALISQSGALGIALMGWTILEKIGLSAVVSVGNKADIDDADLLEFFKDDENTKAILIYMEGVKDGRRFMEVAKEVSKKKPIIVIKAGRSERGAKAAASHTGSLAGSDTIYSAAFKQTGVLRALTIGEAFDWARALSNLPEPQGENVVIITNGGGIGVMATDAAEEEGLHLYDDLEQLKIFANHMPPFGSYKNPVDLTGMADAKSYEGAIRDALAHPDMHSIIVLYCQTAVLDPRELADVIIREYNESGRKKPLVVAIVGGIEAKQAIDVLNENGIPAYPEPERAVKALSALYKWSKWKAKHK | soluble
21 | SGNTSSERSGGEKTHRRESRSGKDGTRPKILMDSAEDGDLFQSDDAKEFLAWRQDQESDSKTPLEERPTVFRWKGPGKEIYLSGSFNNWATKIPLNKSHNNFVAIIDLPEGEHQYKFYVDGHWTLDPKEPVVTNKSGVVNNVIKVRKTDFEVFDALKTDSEKCADMSDLSSSPPGPYHQDPYSTKSEDKLRSPPILPPHLLQVLLNKDTGISCDPTLLPEPNHVMLNHLYALSIKDGVMVLSATHRYKKKYVTTLLYKPI | soluble
